Test results taken from patent US20240270846A1 (published 2024).

B1: CE115HA000 G98S one-arm antibody (antibody, human IgG1, kappa, L234A L235A, N297A, name in Kabat numbering)
heavy: QVQLVESGGGVVQPGRSLRLSCAASGFTFSNAWMHWVRQAPGKGLEWVAQIKAKSNNYATYYAESVKGRFTISRDDSKNSLYLQMNSLKTEDTAVYYCRYVHYSAYYGVDAWGQGTTVTVSSASTKGPSVFPLAPSSKSTSGGTAALGCLVKDYFPEPVTVSWNSGALTSGVHTFPAVLQSSGLYSLSSVVTVPSSSLGTQTYICNVNHKPSNTKVDKKVEPKSCDKTHTCPPCPAPEAAGGPSVFLFPPKPKDTLMISRTPEVTCVVVDVSHEDPEVKFNWYVDGVEVHNAKTKPREEQYASTYRVVSVLTVLHQDWLNGKEYKCKVSNKALPAPIEKTISKAKGQPREPQVYTLPPSRCELTKNQVSLSCAVKGFYPSDIAVEWESNGQPENNYKTTPPVLDSDGSFFLVSKLTVDKSRWQQGNVFSCSVMHEALHNHYTQKSLSLSPDYKDDDDK
chain: EPKSSDKTHTCPPCPAPELLGGPSVFLFPPKPKDTLMISRTPEVTCVVVDVSHEDPEVKFNWYVDGVEVHNAKTKPREEQYNSTYRVVSVLTVLHQDWLNGKEYKCKVSNKALPAPIEKTISKAKGQPREPQVCTLPPSRDELTKNQVSLWCLVKGFYPSDIAVEWESNGQPENNYKTTPPVLDSDGSFFLYSKLTVDKSRWQQGNVFSCSVMHEALHNRYTQKSLSLSP
light: DIVMTQSPLSLPVTPGEPASISCRSSQSLVHSNRNTYLHWYQQKPGQAPRLLIYKVSNRFSGVPDRFSGSGSGTDFTLKISRVEAEDVGVYYCGQGTQVPYTFGQGTKLEIKRTVAAPSVFIFPPSDEQLKSGTASVVCLLNNFYPREAKVQWKVDNALQSGNSQESVTEQDSKDSTYSLSSTLTLSKADYEKHKVYACEVTHQGLSSPVTKSFNRGEC
notes: one-arm antibody (one Fab)
B2: CE115HA000 G100bF one-arm antibody (antibody, human IgG1, kappa, L234A L235A, N297A, name in Kabat numbering)
heavy: QVQLVESGGGVVQPGRSLRLSCAASGFTFSNAWMHWVRQAPGKGLEWVAQIKAKSNNYATYYAESVKGRFTISRDDSKNSLYLQMNSLKTEDTAVYYCRYVHYGAYYFVDAWGQGTTVTVSSASTKGPSVFPLAPSSKSTSGGTAALGCLVKDYFPEPVTVSWNSGALTSGVHTFPAVLQSSGLYSLSSVVTVPSSSLGTQTYICNVNHKPSNTKVDKKVEPKSCDKTHTCPPCPAPEAAGGPSVFLFPPKPKDTLMISRTPEVTCVVVDVSHEDPEVKFNWYVDGVEVHNAKTKPREEQYASTYRVVSVLTVLHQDWLNGKEYKCKVSNKALPAPIEKTISKAKGQPREPQVYTLPPSRCELTKNQVSLSCAVKGFYPSDIAVEWESNGQPENNYKTTPPVLDSDGSFFLVSKLTVDKSRWQQGNVFSCSVMHEALHNHYTQKSLSLSPDYKDDDDK
chain: EPKSSDKTHTCPPCPAPELLGGPSVFLFPPKPKDTLMISRTPEVTCVVVDVSHEDPEVKFNWYVDGVEVHNAKTKPREEQYNSTYRVVSVLTVLHQDWLNGKEYKCKVSNKALPAPIEKTISKAKGQPREPQVCTLPPSRDELTKNQVSLWCLVKGFYPSDIAVEWESNGQPENNYKTTPPVLDSDGSFFLYSKLTVDKSRWQQGNVFSCSVMHEALHNRYTQKSLSLSP
light: DIVMTQSPLSLPVTPGEPASISCRSSQSLVHSNRNTYLHWYQQKPGQAPRLLIYKVSNRFSGVPDRFSGSGSGTDFTLKISRVEAEDVGVYYCGQGTQVPYTFGQGTKLEIKRTVAAPSVFIFPPSDEQLKSGTASVVCLLNNFYPREAKVQWKVDNALQSGNSQESVTEQDSKDSTYSLSSTLTLSKADYEKHKVYACEVTHQGLSSPVTKSFNRGEC
notes: one-arm antibody (one Fab)
B3: CE115HA000 G98T one-arm antibody (antibody, human IgG1, kappa, L234A L235A, N297A, name in Kabat numbering)
heavy: QVQLVESGGGVVQPGRSLRLSCAASGFTFSNAWMHWVRQAPGKGLEWVAQIKAKSNNYATYYAESVKGRFTISRDDSKNSLYLQMNSLKTEDTAVYYCRYVHYTAYYGVDAWGQGTTVTVSSASTKGPSVFPLAPSSKSTSGGTAALGCLVKDYFPEPVTVSWNSGALTSGVHTFPAVLQSSGLYSLSSVVTVPSSSLGTQTYICNVNHKPSNTKVDKKVEPKSCDKTHTCPPCPAPEAAGGPSVFLFPPKPKDTLMISRTPEVTCVVVDVSHEDPEVKFNWYVDGVEVHNAKTKPREEQYASTYRVVSVLTVLHQDWLNGKEYKCKVSNKALPAPIEKTISKAKGQPREPQVYTLPPSRCELTKNQVSLSCAVKGFYPSDIAVEWESNGQPENNYKTTPPVLDSDGSFFLVSKLTVDKSRWQQGNVFSCSVMHEALHNHYTQKSLSLSPDYKDDDDK
chain: EPKSSDKTHTCPPCPAPELLGGPSVFLFPPKPKDTLMISRTPEVTCVVVDVSHEDPEVKFNWYVDGVEVHNAKTKPREEQYNSTYRVVSVLTVLHQDWLNGKEYKCKVSNKALPAPIEKTISKAKGQPREPQVCTLPPSRDELTKNQVSLWCLVKGFYPSDIAVEWESNGQPENNYKTTPPVLDSDGSFFLYSKLTVDKSRWQQGNVFSCSVMHEALHNRYTQKSLSLSP
light: DIVMTQSPLSLPVTPGEPASISCRSSQSLVHSNRNTYLHWYQQKPGQAPRLLIYKVSNRFSGVPDRFSGSGSGTDFTLKISRVEAEDVGVYYCGQGTQVPYTFGQGTKLEIKRTVAAPSVFIFPPSDEQLKSGTASVVCLLNNFYPREAKVQWKVDNALQSGNSQESVTEQDSKDSTYSLSSTLTLSKADYEKHKVYACEVTHQGLSSPVTKSFNRGEC
notes: one-arm antibody (one Fab)
B4: CE115HA000 G98Y one-arm antibody (antibody, human IgG1, kappa, L234A L235A, N297A, name in Kabat numbering)
heavy: QVQLVESGGGVVQPGRSLRLSCAASGFTFSNAWMHWVRQAPGKGLEWVAQIKAKSNNYATYYAESVKGRFTISRDDSKNSLYLQMNSLKTEDTAVYYCRYVHYYAYYGVDAWGQGTTVTVSSASTKGPSVFPLAPSSKSTSGGTAALGCLVKDYFPEPVTVSWNSGALTSGVHTFPAVLQSSGLYSLSSVVTVPSSSLGTQTYICNVNHKPSNTKVDKKVEPKSCDKTHTCPPCPAPEAAGGPSVFLFPPKPKDTLMISRTPEVTCVVVDVSHEDPEVKFNWYVDGVEVHNAKTKPREEQYASTYRVVSVLTVLHQDWLNGKEYKCKVSNKALPAPIEKTISKAKGQPREPQVYTLPPSRCELTKNQVSLSCAVKGFYPSDIAVEWESNGQPENNYKTTPPVLDSDGSFFLVSKLTVDKSRWQQGNVFSCSVMHEALHNHYTQKSLSLSPDYKDDDDK
chain: EPKSSDKTHTCPPCPAPELLGGPSVFLFPPKPKDTLMISRTPEVTCVVVDVSHEDPEVKFNWYVDGVEVHNAKTKPREEQYNSTYRVVSVLTVLHQDWLNGKEYKCKVSNKALPAPIEKTISKAKGQPREPQVCTLPPSRDELTKNQVSLWCLVKGFYPSDIAVEWESNGQPENNYKTTPPVLDSDGSFFLYSKLTVDKSRWQQGNVFSCSVMHEALHNRYTQKSLSLSP
light: DIVMTQSPLSLPVTPGEPASISCRSSQSLVHSNRNTYLHWYQQKPGQAPRLLIYKVSNRFSGVPDRFSGSGSGTDFTLKISRVEAEDVGVYYCGQGTQVPYTFGQGTKLEIKRTVAAPSVFIFPPSDEQLKSGTASVVCLLNNFYPREAKVQWKVDNALQSGNSQESVTEQDSKDSTYSLSSTLTLSKADYEKHKVYACEVTHQGLSSPVTKSFNRGEC
notes: one-arm antibody (one Fab)
B5: CE115HA000 G100bD one-arm antibody (antibody, human IgG1, kappa, L234A L235A, N297A, name in Kabat numbering)
heavy: QVQLVESGGGVVQPGRSLRLSCAASGFTFSNAWMHWVRQAPGKGLEWVAQIKAKSNNYATYYAESVKGRFTISRDDSKNSLYLQMNSLKTEDTAVYYCRYVHYGAYYDVDAWGQGTTVTVSSASTKGPSVFPLAPSSKSTSGGTAALGCLVKDYFPEPVTVSWNSGALTSGVHTFPAVLQSSGLYSLSSVVTVPSSSLGTQTYICNVNHKPSNTKVDKKVEPKSCDKTHTCPPCPAPEAAGGPSVFLFPPKPKDTLMISRTPEVTCVVVDVSHEDPEVKFNWYVDGVEVHNAKTKPREEQYASTYRVVSVLTVLHQDWLNGKEYKCKVSNKALPAPIEKTISKAKGQPREPQVYTLPPSRCELTKNQVSLSCAVKGFYPSDIAVEWESNGQPENNYKTTPPVLDSDGSFFLVSKLTVDKSRWQQGNVFSCSVMHEALHNHYTQKSLSLSPDYKDDDDK
chain: EPKSSDKTHTCPPCPAPELLGGPSVFLFPPKPKDTLMISRTPEVTCVVVDVSHEDPEVKFNWYVDGVEVHNAKTKPREEQYNSTYRVVSVLTVLHQDWLNGKEYKCKVSNKALPAPIEKTISKAKGQPREPQVCTLPPSRDELTKNQVSLWCLVKGFYPSDIAVEWESNGQPENNYKTTPPVLDSDGSFFLYSKLTVDKSRWQQGNVFSCSVMHEALHNRYTQKSLSLSP
light: DIVMTQSPLSLPVTPGEPASISCRSSQSLVHSNRNTYLHWYQQKPGQAPRLLIYKVSNRFSGVPDRFSGSGSGTDFTLKISRVEAEDVGVYYCGQGTQVPYTFGQGTKLEIKRTVAAPSVFIFPPSDEQLKSGTASVVCLLNNFYPREAKVQWKVDNALQSGNSQESVTEQDSKDSTYSLSSTLTLSKADYEKHKVYACEVTHQGLSSPVTKSFNRGEC
notes: one-arm antibody (one Fab)
B6: CE115HA000 G100bE one-arm antibody (antibody, human IgG1, kappa, L234A L235A, N297A, name in Kabat numbering)
heavy: QVQLVESGGGVVQPGRSLRLSCAASGFTFSNAWMHWVRQAPGKGLEWVAQIKAKSNNYATYYAESVKGRFTISRDDSKNSLYLQMNSLKTEDTAVYYCRYVHYGAYYEVDAWGQGTTVTVSSASTKGPSVFPLAPSSKSTSGGTAALGCLVKDYFPEPVTVSWNSGALTSGVHTFPAVLQSSGLYSLSSVVTVPSSSLGTQTYICNVNHKPSNTKVDKKVEPKSCDKTHTCPPCPAPEAAGGPSVFLFPPKPKDTLMISRTPEVTCVVVDVSHEDPEVKFNWYVDGVEVHNAKTKPREEQYASTYRVVSVLTVLHQDWLNGKEYKCKVSNKALPAPIEKTISKAKGQPREPQVYTLPPSRCELTKNQVSLSCAVKGFYPSDIAVEWESNGQPENNYKTTPPVLDSDGSFFLVSKLTVDKSRWQQGNVFSCSVMHEALHNHYTQKSLSLSPDYKDDDDK
chain: EPKSSDKTHTCPPCPAPELLGGPSVFLFPPKPKDTLMISRTPEVTCVVVDVSHEDPEVKFNWYVDGVEVHNAKTKPREEQYNSTYRVVSVLTVLHQDWLNGKEYKCKVSNKALPAPIEKTISKAKGQPREPQVCTLPPSRDELTKNQVSLWCLVKGFYPSDIAVEWESNGQPENNYKTTPPVLDSDGSFFLYSKLTVDKSRWQQGNVFSCSVMHEALHNRYTQKSLSLSP
light: DIVMTQSPLSLPVTPGEPASISCRSSQSLVHSNRNTYLHWYQQKPGQAPRLLIYKVSNRFSGVPDRFSGSGSGTDFTLKISRVEAEDVGVYYCGQGTQVPYTFGQGTKLEIKRTVAAPSVFIFPPSDEQLKSGTASVVCLLNNFYPREAKVQWKVDNALQSGNSQESVTEQDSKDSTYSLSSTLTLSKADYEKHKVYACEVTHQGLSSPVTKSFNRGEC
notes: one-arm antibody (one Fab)

The binders below were run against T1, CD3 epsilon homodimer protein (UniProt P07766 23-126) (assay: SPR Biacore T200, CD3 epsilon homodimer on CM4 chip, antibody as analyte;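 also: Amine-coupled CD3 epsilon homodimer, run at 25 °C in HBS-EP+ buffer, ratio is bound amount of each single-residue H chain variant over that of the parent antibody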).
T1 construct: Immobilized on Sensor chip CM4 by amine coupling; construct not described; also called CD3 (CD3 epsilon)
T1 sequence (P07766 23-126): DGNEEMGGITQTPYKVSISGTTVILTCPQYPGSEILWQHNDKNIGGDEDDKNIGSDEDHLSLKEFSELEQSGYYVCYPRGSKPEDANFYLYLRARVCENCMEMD
For B1, the “ratio of amounts bound (Y/X vs CE115HA000)” value (shortened to “ratio of amounts bound”) was 1.01. B2 was tested, and the “ratio of amounts bound” value was 0.3. B3 was tested, and the “ratio of amounts bound” value was 1.05. With B4 the “ratio of amounts bound” value was 2.22. For B5, the “ratio of amounts bound” value was 0.27. For B6, the “ratio of amounts bound” value was 0.26.
